Assay results taken from the supplement of paper PMC7877785.
± gives the uncertainty stated by the source.

Assay: self-splicing fitness, log relative to wild type (ln ratio); higher = more splicing; Tetrahymena group I intron in knt gene, E. coli kanamycin selection, DiMSum; sequences stand for … in CUCUCU…GGAGGGAAAAGUUAUCAGGCAUGCACCUGGUAGCUAGUCUUUAAACCAAUAGAUUGCAUCGGUUUAAAAGGCAAGACCGUCAAAUUGCGGGAAAGGGGUCAACAGCCGUUCAGUACCAAGUCUCAGGGGAAACUUUGAGAUGGCCUUGCAAAGGGUAUGGUAAUAAGCUGACGGACAUGGUCCUAACCACGCAGCCAAGUCCUAAGUCAACAGAUCUUCUGUUGAUAUGGAUGCAGUUCACAGACUAAAUGUCGGUCGGGGAAGAUGUAUUCUUCUCAUAAGAUAUAGUCGGACCUCUCCUUAAUGGGAGCUAGCGGAUGAAGUGAUGCAACACUGGAGCCGCUGGGAACUAAUUUGUAUGCGAAAGUAUAUUGAUUAGUUUUGGAGUACUCGUGGUCG
Outline: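 DiMSum derived fitness as the error-weighted combination of fold changes across replicates, kanamycin versus no kanamycin, normalised to wild type. E. coli BL21(DE3) held the library, which randomised all eight P1ex-region intron nucleotides within the knt kanamycin-resistance gene on pET-22b(+). Six replicate transformations grew overnight at 37°C or 30°C on LB agar with or without 25 μg/mL kanamycin, also containing 100 μg/mL carbenicillin, 50 μM IPTG and 0.2% rhamnose, and pooled colonies were amplicon-sequenced on an Illumina HiSeq 2500.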

Sequence	self-splicing fitness (ln) (30 °C)	self-splicing fitness (ln) (37 °C)
UAAUAGCAAUAUUACGAUAG	-2.06 ± 0.27	-2.99 ± 0.38
UAAUAGCAAUAUUACGAUGG	-3.31 ± 0.16	-1.18 ± 0.13
UAAUAGCAAUAUUACGAUUC	–	-2.05 ± 0.23
UAAUAGCAAUAUUACGCACC	-2.04 ± 0.21	-0.918 ± 0.24
UAAUAGCAAUAUUACGCAUU	-2.83 ± 0.21	-2.15 ± 0.28
UAAUAGCAAUAUUACGCGCA	-1.13 ± 0.086	0.129 ± 0.1
UAAUAGCAAUAUUACGCGGU	-3 ± 0.31	-2.29 ± 0.35
UAAUAGCAAUAUUACGCGUU	-4.21 ± 0.17	-2.66 ± 0.15
UAAUAGCAAUAUUACGCUCA	-0.0964 ± 0.088	-0.235 ± 0.096
UAAUAGCAAUAUUACGCUUG	-0.7 ± 0.082	-0.621 ± 0.096
UAAUAGCAAUAUUACGGAUC	–	-2.05 ± 0.41
UAAUAGCAAUAUUACGGCGA	-1.6 ± 0.21	-0.266 ± 0.22
UAAUAGCAAUAUUACGGGGG	-3.12 ± 0.19	-3.37 ± 0.39
UAAUAGCAAUAUUACGGUCA	-0.412 ± 0.11	-0.333 ± 0.11
UAAUAGCAAUAUUACGGUGG	-4.08 ± 0.25	-1.12 ± 0.12
UAAUAGCAAUAUUACGGUUC	-2.91 ± 0.29	–
UAAUAGCAAUAUUACGUCAC	-3.93 ± 0.26	0.0385 ± 0.19
UAAUAGCAAUAUUACGUCAU	-4 ± 0.28	-2.52 ± 0.22
UAAUAGCAAUAUUACGUUCU	-2.47 ± 0.29	-1.9 ± 0.32
UAAUAGCAAUAUUACGUUUU	-4.25 ± 0.29	-2.73 ± 0.17
UACAAGCAAUAUUACGAAAU	-2.52 ± 0.16	-3.01 ± 0.29
UACAAGCAAUAUUACGAUAG	-2.16 ± 0.093	-0.848 ± 0.089
UACAAGCAAUAUUACGAUCU	-0.941 ± 0.075	-0.61 ± 0.077
UACAAGCAAUAUUACGAUUC	-3.23 ± 0.13	-2.04 ± 0.16
UACAAGCAAUAUUACGAUUG	-3.18 ± 0.17	-1.8 ± 0.17

Sequence	self-splicing fitness (ln) (30 °C)	self-splicing fitness (ln) (37 °C)
UACAAGCAAUAUUACGCAAG	-2.81 ± 0.12	-1.6 ± 0.11
UACAAGCAAUAUUACGCAGA	-2.31 ± 0.15	-1.29 ± 0.1
UACAAGCAAUAUUACGCCAA	-1.74 ± 0.18	-1.07 ± 0.15
UACAAGCAAUAUUACGCCUC	-3.38 ± 0.48	-2.1 ± 0.4
UACAAGCAAUAUUACGCGAA	-2.37 ± 0.099	-0.769 ± 0.095
UACAAGCAAUAUUACGCGCA	-0.13 ± 0.081	0.163 ± 0.11
UACAAGCAAUAUUACGCGUG	-2.09 ± 0.11	-1.37 ± 0.098
UACAAGCAAUAUUACGGAAC	-3.75 ± 0.27	-2.28 ± 0.25
UACAAGCAAUAUUACGGACC	-2.74 ± 0.14	-0.499 ± 0.18
UACAAGCAAUAUUACGGCAG	-0.426 ± 0.078	-0.134 ± 0.11
UACAAGCAAUAUUACGGCCA	-0.557 ± 0.14	0.111 ± 0.16
UACAAGCAAUAUUACGGCGG	-0.215 ± 0.065	0.218 ± 0.084
UACAAGCAAUAUUACGGGGC	-5.04 ± 0.34	-2.46 ± 0.17
UACAAGCAAUAUUACGGUAC	-4.41 ± 0.31	-3.1 ± 0.33
UACAAGCAAUAUUACGUAAG	-3.96 ± 0.21	-3.05 ± 0.19
UACAAGCAAUAUUACGUAUA	-2.22 ± 0.13	-0.891 ± 0.12
UACAAGCAAUAUUACGUCAA	-3.18 ± 0.2	-1.67 ± 0.13
UACAAGCAAUAUUACGUGAG	-3.54 ± 0.17	-1.91 ± 0.14
UACAAGCAAUAUUACGUUAC	-4.21 ± 0.23	-2.84 ± 0.22
UACCAGCAAUAUUACGAAAG	-1.95 ± 0.15	-1.28 ± 0.15
UACCAGCAAUAUUACGACAU	-1.381 ± 0.012	-0.566 ± 0.032
UACCAGCAAUAUUACGACGC	-2.41 ± 0.12	-1.73 ± 0.15
UACCAGCAAUAUUACGACGG	-0.833 ± 0.06	-0.237 ± 0.094
UACCAGCAAUAUUACGAGAC	-2.38 ± 0.18	-1.54 ± 0.2
UACCAGCAAUAUUACGAGCA	-0.673 ± 0.066	0.225 ± 0.09

Sequence	self-splicing fitness (ln) (30 °C)	self-splicing fitness (ln) (37 °C)
UACCAGCAAUAUUACGAUAG	-1.1 ± 0.067	0.0475 ± 0.097
UACCAGCAAUAUUACGAUCU	-1.77 ± 0.13	-1.08 ± 0.16
UACCAGCAAUAUUACGCAAA	-1.54 ± 0.081	0.0436 ± 0.096
UACCAGCAAUAUUACGCCUU	-0.707 ± 0.066	-0.62 ± 0.074
UACCAGCAAUAUUACGGCUG	-3.63 ± 0.14	-2 ± 0.15
UACCAGCAAUAUUACGGGGU	-4.41 ± 0.16	-2.68 ± 0.15
UACCAGCAAUAUUACGUAAA	-0.982 ± 0.071	-0.408 ± 0.097
UACCAGCAAUAUUACGUACA	-0.719 ± 0.071	-0.432 ± 0.1
UACCAGCAAUAUUACGUCAG	-0.702 ± 0.095	-1.16 ± 0.11
UACCAGCAAUAUUACGUUCG	-0.545 ± 0.071	0.0802 ± 0.092
UACGAGCAAUAUUACGAAGA	-2.13 ± 0.37	–
UACGAGCAAUAUUACGAAGC	-2.71 ± 0.35	-0.927 ± 0.34
UACGAGCAAUAUUACGAAGU	-4.33 ± 0.39	-2.41 ± 0.24
UACGAGCAAUAUUACGACAA	-2.15 ± 0.47	-1.2 ± 0.31
UACGAGCAAUAUUACGACGA	-1.85 ± 0.18	-0.325 ± 0.13
UACGAGCAAUAUUACGAGUA	-2.84 ± 0.15	-2.52 ± 0.15
UACGAGCAAUAUUACGCAGA	–	-2.33 ± 0.31
UACGAGCAAUAUUACGCAUG	-2.37 ± 0.25	-2.25 ± 0.24
UACGAGCAAUAUUACGCCAU	–	-1.84 ± 0.31
UACGAGCAAUAUUACGCCUU	-3.54 ± 0.43	–
UACGAGCAAUAUUACGCGAU	-4.05 ± 0.3	-2.28 ± 0.22
UACGAGCAAUAUUACGCGUA	–	-2.35 ± 0.41
UACGAGCAAUAUUACGCUGG	-3.2 ± 0.27	-1.77 ± 0.16
UACGAGCAAUAUUACGGAUU	-2.38 ± 0.33	–
UACGAGCAAUAUUACGGCAC	–	-2.53 ± 0.41

Sequence	self-splicing fitness (ln) (30 °C)	self-splicing fitness (ln) (37 °C)
UACGAGCAAUAUUACGUAAG	-3.58 ± 0.2	-2.33 ± 0.19
UACGAGCAAUAUUACGUAAU	-4.22 ± 0.31	-1.43 ± 0.19
UACGAGCAAUAUUACGUAGU	-3.39 ± 0.32	-2.95 ± 0.33
UACGAGCAAUAUUACGUCUA	-0.512 ± 0.1	-0.152 ± 0.11
UACGAGCAAUAUUACGUUAU	-3.45 ± 0.12	-2.24 ± 0.099
UACGAGCAAUAUUACGUUCA	-1.3 ± 0.11	-0.719 ± 0.13
UACUAGCAAUAUUACGAAAU	–	-3.34 ± 0.4
UACUAGCAAUAUUACGAACC	–	-2.16 ± 0.22
UACUAGCAAUAUUACGAACG	-0.328 ± 0.15	-0.12 ± 0.18
UACUAGCAAUAUUACGAACU	-1.14 ± 0.21	-1.51 ± 0.25
UACUAGCAAUAUUACGAGAA	-1.6 ± 0.33	-0.769 ± 0.22
UACUAGCAAUAUUACGAGAU	-2.46 ± 0.23	-1.54 ± 0.28
UACUAGCAAUAUUACGAGUA	-2.36 ± 0.18	-1.77 ± 0.19
UACUAGCAAUAUUACGAUCC	-3.14 ± 0.36	-2.84 ± 0.38
UACUAGCAAUAUUACGAUUG	-1.88 ± 0.16	-0.352 ± 0.21
UACUAGCAAUAUUACGCGGC	-4.73 ± 0.46	-2.95 ± 0.4
UACUAGCAAUAUUACGGAUU	-2.82 ± 0.12	-1.56 ± 0.13
UACUAGCAAUAUUACGGGGC	-3.02 ± 0.3	-2.5 ± 0.44
UACUAGCAAUAUUACGGGGG	-2.19 ± 0.12	-1.31 ± 0.14
UACUAGCAAUAUUACGUCUG	-0.817 ± 0.07	-0.845 ± 0.086
UACUAGCAAUAUUACGUGGC	-2.44 ± 0.18	-2.91 ± 0.28
UACUAGCAAUAUUACGUGUC	-3.38 ± 0.17	-2.79 ± 0.15
UACUAGCAAUAUUACGUUAC	-3.86 ± 0.27	-2.44 ± 0.3
UACUAGCAAUAUUACGUUCC	-2.22 ± 0.32	-2.33 ± 0.35
